# Values quoted from earlier work in PMC9363672.
# Target: syndecan 3 (Homo sapiens) (UniProt O75056)
# UniProt O75056, sequence (O75056 whole entry): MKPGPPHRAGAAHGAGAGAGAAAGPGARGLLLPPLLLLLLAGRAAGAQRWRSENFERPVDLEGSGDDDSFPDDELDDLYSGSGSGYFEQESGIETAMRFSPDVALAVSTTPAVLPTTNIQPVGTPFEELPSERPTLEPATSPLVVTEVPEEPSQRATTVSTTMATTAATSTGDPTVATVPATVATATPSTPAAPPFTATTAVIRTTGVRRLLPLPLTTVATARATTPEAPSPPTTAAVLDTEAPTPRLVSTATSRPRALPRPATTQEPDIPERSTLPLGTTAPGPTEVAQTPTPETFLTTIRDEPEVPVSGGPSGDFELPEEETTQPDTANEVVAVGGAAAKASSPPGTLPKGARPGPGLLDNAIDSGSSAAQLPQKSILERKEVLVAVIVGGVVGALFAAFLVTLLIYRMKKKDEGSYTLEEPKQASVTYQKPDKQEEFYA
substance,measurement,value
pleiotrophin (from UniProt P21246),Kd,6 nM
